Data as given in patent US20220259288A1 (LA JOLLA INSTITUTE FOR ALLERGY AND IMMUNOLOGY, published 2022).

T1: HLA-DP DPB1*02:01 (human)
T1 chain 1: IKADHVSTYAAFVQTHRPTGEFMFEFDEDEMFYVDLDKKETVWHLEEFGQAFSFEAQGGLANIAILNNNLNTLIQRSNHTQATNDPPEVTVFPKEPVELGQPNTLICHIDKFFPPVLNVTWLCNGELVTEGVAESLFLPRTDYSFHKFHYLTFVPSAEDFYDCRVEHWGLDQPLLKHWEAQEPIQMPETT
T1 chain 2: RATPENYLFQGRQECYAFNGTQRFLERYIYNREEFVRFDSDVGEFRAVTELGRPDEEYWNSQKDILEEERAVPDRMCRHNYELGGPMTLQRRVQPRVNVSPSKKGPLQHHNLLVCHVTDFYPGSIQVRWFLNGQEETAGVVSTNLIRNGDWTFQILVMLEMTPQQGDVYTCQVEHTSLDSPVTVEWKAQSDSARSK

T2: HLA-DP DPB1*04:01 (human)
T2 chain 1: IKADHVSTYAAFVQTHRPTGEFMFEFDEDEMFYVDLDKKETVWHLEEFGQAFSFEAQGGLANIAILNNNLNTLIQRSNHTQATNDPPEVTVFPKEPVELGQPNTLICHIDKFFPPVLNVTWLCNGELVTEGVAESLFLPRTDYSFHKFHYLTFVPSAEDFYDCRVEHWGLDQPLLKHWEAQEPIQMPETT
T2 chain 2: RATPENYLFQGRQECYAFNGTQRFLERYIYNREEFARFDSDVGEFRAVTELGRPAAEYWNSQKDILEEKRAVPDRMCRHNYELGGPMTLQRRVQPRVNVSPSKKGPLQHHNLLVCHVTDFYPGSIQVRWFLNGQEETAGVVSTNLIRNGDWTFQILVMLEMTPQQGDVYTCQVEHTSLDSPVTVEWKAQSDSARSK


Columns and labels:
HLA-DP DPB1*02:01 = target: T1, HLA-DP DPB1*02:01; experiment: competition assay
HLA-DP DPB1*04:01 = target: T2, HLA-DP DPB1*04:01; experiment: competition assay
HLA-DRB1*01:01 = target: T3, HLA-DRB1*01:01 (human); experiment: HLA class II competition binding assay
T3 construct: MHC class II molecule; how it was prepared for the assay is not described

HLA-DRB1*03:01 = target: T4, HLA-DRB1*03:01 (human); experiment: HLA class II competition binding assay
T4 construct: MHC class II molecule; how it was prepared for the assay is not described

HLA-DRB1*07:01 = target: T5, HLA-DRB1*07:01 (human); experiment: HLA class II competition binding assay
T5 construct: MHC class II molecule; how it was prepared for the assay is not described

HLA-DRB1*09:01 = target: T6, HLA-DRB1*09:01 (human); experiment: HLA class II competition binding assay
T6 construct: MHC class II molecule; how it was prepared for the assay is not described

HLA-DRB1*12:01 = target: T7, HLA-DRB1*12:01 (human); experiment: HLA class II competition binding assay
T7 construct: MHC class II molecule; how it was prepared for the assay is not described

HLA-DRB1*13:02 = target: T8, HLA-DRB1*13:02 (human); experiment: HLA class II competition binding assay
T8 construct: MHC class II molecule; how it was prepared for the assay is not described

HLA-DRB1*15:01 = target: T9, HLA-DRB1*15:01 (human); experiment: HLA class II competition binding assay
T9 construct: MHC class II molecule; how it was prepared for the assay is not described

HLA-DRB3*01:01 = target: T10, HLA-DRB3*01:01 (human); experiment: HLA class II competition binding assay
T10 construct: MHC class II molecule; how it was prepared for the assay is not described

HLA-DRB3*02:02 = target: T11, HLA-DRB3*02:02 (human); experiment: HLA class II competition binding assay
T11 construct: MHC class II molecule; how it was prepared for the assay is not described

HLA-DRB5*01:01 = target: T12, HLA-DRB5*01:01 (human); experiment: HLA class II competition binding assay
T12 construct: MHC class II molecule; how it was prepared for the assay is not described

HLA-DRB1*04:01 = target: T13, HLA-DRB1*04:01 (human); experiment: HLA class II competition binding assay
T13 construct: MHC class II molecule; how it was prepared for the assay is not described

HLA-DRB1*04:05 = target: T14, HLA-DRB1*04:05 (human); experiment: HLA class II competition binding assay
T14 construct: MHC class II molecule; how it was prepared for the assay is not described

HLA-DRB4*01:01 = target: T15, HLA-DRB4*01:01 (human); experiment: HLA class II competition binding assay
T15 construct: MHC class II molecule; how it was prepared for the assay is not described

HLA-DP DPB1*05:01 = target: T16, HLA-DP DPB1*05:01 (human); experiment: competition assay
T16 construct: its preparation is not described

HLA-DP DPB1*14:01 = target: T17, HLA-DP DPB1*14:01 (human); experiment: competition assay
T17 construct: its preparation is not described

HLA-DQ DQB1*06:02 = target: T18, HLA-DQ DQB1*06:02 (human); experiment: competition assay
T18 construct: its preparation is not described

Binder	IC50 (HLA-DP DPB1*02:01) [nM]	IC50 (HLA-DP DPB1*04:01) [nM]	further results
TLTAFGFASADLIEI [ApoB100 peptide 3563.0005, listing 1 of 2 here]	–	–	IC50 (HLA-DRB1*01:01): 60 nM; IC50 (HLA-DRB1*03:01): 16.4 µM; IC50 (HLA-DRB1*07:01): 33 nM; IC50 (HLA-DRB1*09:01): 28 nM; IC50 (HLA-DRB1*12:01): 27.2 µM; IC50 (HLA-DRB1*13:02): 6.1 nM; IC50 (HLA-DRB1*15:01): 25 nM; IC50 (HLA-DRB3*01:01): 99 nM; IC50 (HLA-DRB3*02:02): 18.1 µM; IC50 (HLA-DRB5*01:01): 276 nM
HVKHFVINLIGDFEV [ApoB100 peptide 3563.0014]	58	7	–
RGLKLATALSLSNKF [ApoB100 peptide 3563.0020]	–	–	IC50 (HLA-DRB1*13:02): 1.1 nM
GKIDFLNNYALFLSP [ApoB100 peptide 3563.0019]	456	–	–
LSQLQTYMIQFDQYI [ApoB100 peptide 3563.0012, listing 1 of 2 here]	576	951	–
EGHLRFLKNIILPVY [ApoB100 peptide 3563.0021]	61	–	–
IKHIYAISSAALSAS (also called p9; P9) [ApoB100 peptide 3563.0009]	–	–	IC50 (HLA-DRB1*07:01): 77 nM; IC50 (HLA-DRB1*15:01): 1.1 nM; IC50 (HLA-DRB3*02:02): 0.0034 µM
QIHQYIMALREEYFD [ApoB100 peptide 3563.0027]	80	817	–
LSQLQTYMIQFDQYI [ApoB100 peptide 3563.0012, listing 2 of 2 here]	–	–	IC50 (HLA-DRB1*01:01): 157 nM; IC50 (HLA-DRB1*03:01): 20.5 µM; IC50 (HLA-DRB1*04:01): 19 nM; IC50 (HLA-DRB1*04:05): 69 nM; IC50 (HLA-DRB1*07:01): 14 nM; IC50 (HLA-DRB1*09:01): 425 nM; IC50 (HLA-DRB1*12:01): 3.36 µM; IC50 (HLA-DRB1*13:02): 35 nM; IC50 (HLA-DRB1*15:01): 1.1 nM; IC50 (HLA-DRB3*01:01): 1110 nM; IC50 (HLA-DRB3*02:02): 4.67 µM; IC50 (HLA-DRB4*01:01): 29 nM; IC50 (HLA-DRB5*01:01): 826 nM
VGSKLIVAMSSWLQK	–	–	IC50 (HLA-DRB5*01:01): 23 nM
KIVSLIKNLLVALKD [ApoB100 peptide 3563.0028, listing 2 of 2 here]	–	–	IC50 (HLA-DRB5*01:01): 14 nM
ILFSYFQDLVITLPF [ApoB100 peptide 3563.0023]	–	–	IC50 (HLA-DRB3*01:01): 71 nM
LIINWLQEALSSASL	–	–	IC50 (HLA-DRB1*13:02): 12 nM; IC50 (HLA-DRB4*01:01): 12 nM
FLHYIFMENAFELPT [ApoB100 peptide 3563.0006]	40	32	–
QELLDIANYLMEQIQ [ApoB100 peptide 3563.0003, listing 2 of 2 here]	–	–	IC50 (HLA-DRB3*01:01): 88 nM
YKKLRTSSFALNLPT [ApoB100 peptide 3563.0022]	3.3	2.1	–
IDLSIQNYHTFLIYI [ApoB100 peptide 3563.0029]	23200	25000	–
PALLALLALPALLLL (label printed as 3563.001) [ApoB100 peptide 3563.001]	–	14000	–
TLTAFGFASADLIEI [ApoB100 peptide 3563.0005, listing 2 of 2 here]	–	490	–
GKLYSILKIQSPLFT [ApoB100 peptide 3563.0016]	9070	2100	–

More lines, main results first:

IC50 (HLA-DP DPB1*02:01) [nM]	IC50 (HLA-DP DPB1*04:01) [nM]	Binder	further results
96	215	FLIYITELLKKLQST [ApoB100 peptide 3563.0030]	–
1680	372	DKRLAAYLMLMRSPS [ApoB100 peptide 3563.0004]	–
200	16	QEVFKAIQSLKTTEV [ApoB100 peptide 3563.0024]	–
1780	2580	QELLDIANYLMEQIQ [ApoB100 peptide 3563.0003, listing 1 of 2 here]	–
16300	6190	LIINWLQEALSSASL (agrees with the claims)	–
657	78	KIVSLIKNLLVALKD [ApoB100 peptide 3563.0028, listing 1 of 2 here]	–
128	89	VGSKLIVAMSSWLQK (agrees with the claims)	–
12	–	VEFVTNMGIIIPDFA (agrees with the claims) [ApoB100 peptide 3563.0007]	–
11	–	SLFFSAQPFEITAST (also called p18) [ApoB100 peptide 3563.0018]	IC50 (HLA-DP DPB1*05:01): 1480 nM; IC50 (HLA-DP DPB1*14:01): 126 nM; IC50 (HLA-DQ DQB1*06:02): 895 nM
86	191	LEVLNFDFQANAQLS (agrees with the claims) [ApoB100 peptide 3563.0017]	–
